Columns and labels:
[1] = tested on: S. cerevisiae VSK-128 ACS2 deletion strain; experiment: AADH in vivo growth assay, ACS2 deletion strain on glucose-based agar plates; type: cell-based
Description: All copies of the ACS2 gene were deleted from the industrial S. cerevisiae VSK-128 strain in order to generate a strain with a defective PDH-bypass that was incapable of growth on glucose-based medium. Expression vectors carrying the 25 different AADH variants were then transformed into this ACS2 deletion strain to evaluate their ability to recover the growth of this strain on glucose.
There was a good correlation between the in vitro AADH enzyme activity assays and the in vivo growth recovery analyses.

AADH = AADH in vitro enzyme activity assay from yeast cell lysates; type: biochemical; conditions: for AADH activity: in vitro, expressed in yeast
Experimental: AADH activity was measured as described by Kozak et al. (2014, Metab. Eng. 21:46-59) by monitoring the reduction of NAD^+ at 340 nm at 30° C. The yeast cells for the cell lysates were collected, washed with water, and then resuspended into lysis buffer containing 100 mM Tris-HCl buffer (pH 7.5) and 1×EDTA free protease inhibitor cocktail (Roche). The cells were lysed with glass beads in a Precellys 24 homogenizer at 5500 rpm for 3×40 seconds and kept on ice between rounds. Lysates were centrifuged at 16 000 g for 20 min at 4° C. and supernatants were collected. The total protein concentration was determined using the Bradford method.
The enzyme assay reaction mixture contained 0.1 mM Coenzyme A, 50 mM CHES buffer (pH 9.5), 0.8 mM NAD^+, 0.2 mM DTT and 10 μL of cell extract in a total reaction volume of 200 μL. The reaction was started by adding 10 mM of freshly prepared acetaldehyde solution and reduction of NAD^+ was followed with a Thermo Konelab 20XT analyser.
Five AADH genes were originally chosen (i.e. ADHEpm, ADHEec, EUTec, EUTdz and LIN1129li) and transformed into the CEN.PK lab strain. These AADHs were expressed from a multicopy plasmid where they were under control of the TEF1 promoter.
Twenty additional novel AADH genes were chosen from the genome mining analyses to be evaluated for expression and enzyme activity in yeast.

Molecule	recovery of the growth deficiency of the ACS2-deletion strain [1]	AADH activity (AADH)	AADH activity in yeast compared to the adhE-type AADHs (AADH; CEN.PK lab strain, multicopy plasmid, TEF1 promoter)
AADHbw: eutE type AADH of Bilophila wadsworthia 3_1_6, GenBank EFV45545.1 (protein, AADHbw) MDVRQQDVERIVVEVLKKMMSDQPTAAATTVVAASGCDCGDFGLFDRLEDAVQAAEAAQKKISTVAMRDKIIAAIRKAGLENAKAFAEIAHNETGMGRVSDKIAKNILVCERTPGTECLSPMAISGDMGLTLIENAPWGVIASVTPSTNPTATVINNAISMIAGGNSVIFAPHPNAKRASQTAIQVLNKAIIEATGVANLLVAVKEPTIEVAQELFSHPRIKLLVVTGGEAVVAQARKVATMRLIAAGAGNPPVVVDETANIARAARSIYDGASFDNNIICADEKEIIAVDSIADQLKAEMKAIGAVEISLEQADAVARVVLRNYPQVEGGKAPNPNPKWVGRDAALIAKAAGIDVPDSCRLLIVDVKRDINHVFARVEQLMPVIPLLRAANVDEAIEWALILERGLSHTAGMHSRNIDNMDKMARAMNTSLFVKNGPHLAALGAGGEGWTTMTISTPTGEGVTCARSFVRLRRCCVVDNFRIV	capable of recovering the growth deficiency	shown to have AADH activity	–
ADHEpm: adhE type AADH of Piromyces sp. E2, GenBank AY282576.1 (protein, ADHEpm) MSGLQMFQNLSLYGSLAEIDTSEKLNEAMDKLTAAQEQFREYNQEQVDKIFKAVALAASQNRVAFAKYAHEETQKGVFEDKVIKNEFAADYIYHKYCNDKTAGIIEYDEANGLMEIAEPVGPVVGIAPVTNPTSTIIYKSLIALKTRNCIIFSPHPGAHKASVFVVKVLHQAAVKAGAPENCIQIIFPKMDLTTELLHHQKTRFIWATGGPGLVHASYTSGKPALGGGPGNAPALIDETCDMNEAVGSIVVSKTFDCGMICATENAVVVVESVYENFVATMKKRGAYFMTPEETKKASNLLFGEGMRLNAKAVGQTAKTLAEMAGFEVPENTVVLCGEASEVKFEEPMAHEKLTTILGIYKAKDFDDGVRLCKELVTFGGKGHTAVLYTNQNNKDRIEKYQNEVPAFHILVDMPSSLGCIGDMYNFRLAPALTITCGTMGGGSSSDNIGPKHLLNIKRVGMRRENMLWFKIPKSVYFKRAILSEALSDLRDTHKRAIIITDRTMTMLGQTDKIIKACEGHGMVCTVYDKVVPDPTIKCIMEGVNEMNVFKPDLAIALGGGSAMDAAKMMRLFYEYPDQDLQDIATRFVDIRKRVVGCPKLGRLIKTLVCIPTTSGTGAEVTPFAVVTSEEGRKYPLVDYELTPDMAIVDPEFAVGMPKRLTSWTGIDALTHAIESYVSIMATDFTRPYSLRAVGLIFESLSLAYNNGKDIEAREKMHNASAIAGMAFANAFLGCCHSVAHQLGSVYHIPHGLANALMLSHIIKYNATDSPVKMGTFPQYKYPQAMRHYAEIAELLLPPTQVVKMTDVDKVQYLIDRVEQLKADVGIPKSIKETGMVTEEDFFNKVDQVAIMAFDDQCTGANPRYPLVSELKQLMIDAWNGVVPKL	–	showed AADH activity	–
EUTEec: eutE type AADH of Escherichia coli HS, GenBank YP_001459232.1 (protein, EUTEec) MNQQDIEQVVKAVLLKMQSSDTPPAAVHEMGVFASLDDAVAAAKVAQQGLKSVAMRQLAIAAIREAGEKHARDLAELAVSETGMGRVEDKFAKNVAQARGTPGVECLSPQVLTGDNGLTLIENAPWGVVASVTPSTNPAATLINNAISLIAAGNSVIFAPHPAAKKVSQRAITLLNQAIVAAGGPENLLVTVANPDIETAQRLFKFPGIGLLVVTGGEAVVEAARKHTNKRLIAAGAGNPPVVVDETADLARAAQSIVKGASFDNNIICADEKVLIVVDSVADELMRLMEGQHAVKLTAEQAQQLQPVLLKNIDERGKGTVSRDWVGRDAAKIAAAIGLNVPQETRLLFVETTAEHPFAVTELMMPVLPVVRVANVADAIALAVKLEGGCHHTAAMHSRNIENMNQMANAIDTSIFVKNGPCIAGLGLGGEGWTTMTITTPTGEGVTSARTFVRLRRCVLVDAFRIV	capable of recovering the growth deficiency	showed AADH activity	much higher AADH activity
AADHhs: eutE type AADH of Halanaerobium saccharolyticum DSM 6643, GenBank CCU77919.1 (protein, AADHhs) MKIKENELDKIVNQVISSLNNKQNSNDFNTKINYGIFSTMDEAIAEAVKAQACLQLNYSTEAREKIIKSIRKNVSKHVEKISEMAVEETDMGRIEDKIIKNNLAINKTPGTEDLRTEAFSGKKGLTIVEEAPFGVICSIAPVTNPTETIISNAISMIASCNGVVFNSHPGAKKVSKYIIEVLNKVIMEAGGPENLLTAVNEPTLQTVESCMRDDRIAMIVATGGPGVVNAALSSGKKAIGAGAGNPPVLVDDTVDLKRVAKDIINGASFDNNLPCTSEKAIVALESIADSLLNEMTNQNAQLVHDIKALERVILNDDGSINKALVGKDAAFILNKAGLKAKSEDLRLVIVDVDLRHPFVQKEQLMPVIPLVRAKNFNEAMEMGVDIEEGNRHTAIIHSKNVDNLTKFAKKIETTIYVKNAPSYAGIGAGGEGYATFTIAGPTGEGLTSARSFTRKRRCVLVDGFSII	capable of recovering the growth deficiency	–	–
AADHtl: eutE type AADH of Thauera linaloolentis DSM 12138, GenBank ENO90114.1 (protein, AADHtl) MVDIDLKNVEQIVRTVLASMQTQPQAVQPAAGRRAAPGVFTELDDAVAEASTAQRAIRNLATRVKVVEAIRKAAEAHARELAELAVAETGMGRVEDKFAKNVSQARHTPGVECLAPTALTGDRGLTLIENAAWGVIASVTPSTNPAATIINNAISMISAGNTVVFAPHPAAKKVSQRTVSLLNEASVAAGGPDNVVTTVLNPDIATAQRLFSYPGIHLLTVTGGEAVVEAARKHTDKRLIAAGAGNPPVVVDETADLARAARDIVWGASFDNNIICVDEKEIIVVDRVCDALKTEMARHKAVELTPDQGKRLVDVLLNYVGADGRGTVSRDWVGRDAAKIAAAIGLEVPADTRLLYIETPADHPFAVTELMMPVIPVVRAPDVDAAIDLAVKLEGNCRHTAAMHSRNIDALDRMANAINTSIFVKNGPCLAGLGFGGEGWTTMTISTPTGEGVTSARTFVRLRRCVLVDHFRIV	capable of recovering the growth deficiency	–	–
AADHbs: eutE type AADH of Blautia sp. CAG: 237, GenBank CDB76812.1 (protein, AADHbs) MDEIMIKNIVREVLMKTNLDISCKSDQGVFEDVNDAIDAAYIAQRDWYMNYKVEDRRRIIEAIRVVARENAPMFAKMIHEETGMGRYEDKITKNLAVIDKTPGVECLVTDAISGDSGLMIEEQAPFGVIGAITPSTNPTETIINNTISMIGGGNAVVFNVHPGAKKVCAVCLQILHKTIVENGGPANLITMQRKPDMEAVNKLTASPKIRLMVGTGGMGMVNALLKSGKKTIGAGAGNPPVVVDDTADLDKAASEIYRGASFDNNLLCLAEKETFVMDNVADELIRKMCACGAHLITPQETEQLLKVIFLEKDGKYSVNKKWVGKDASLILESIGIKDADTRLVLCEVPHDHPFVLVEQLMPIMPIVRCKTFEDCVKYAVVAENGNRHTASMFSKNVDHMTRFAKEIETTIFTKNAATLVGVGIGGEGHTTMTIAGPTGEGLTCARSFTRRRRCMLADGGLRVI	capable of recovering the growth deficiency	–	–
AADHta: eutE type AADH of Tolumonas auensis DSM 9187, GenBank ACQ93307.1 (protein, AADHta) MNNTELESLIRTILTEQLTPSATDTPACTASSVALFDDVDSAICAAHAAFLRYQEAPLKTRSAIIAAIRAEIAPCLSELAERAAAETGMGNTADKILKNKAALENTPGIEDLKTTALTGDEGMVLFEYSPFGVVGAVAPSTNPTETIINNSISMLAAGNAIYFSPHPGAKNISLWLIQKMEEIAFKVCGIHNLIVTVKEPTFEATQQMMAHDKIALLAITGGPGIVNMGLKSGKKVIGAGAGNPPCLVDETAEIVKAAQDIVAGASFDYNLPCIAEKSVIAVDCIADQLIQQMREFGAMQITDPQQIAQLREVCIQKGAANKSLVGKSPATILAAAGIPCPAKEPRLIILEVPANDPFVVTEQLMPVLPIVRVDNFEQGLQLALKVEDGLHHTAMMHSQNVSRLNKAAHLMQTSIFVKNGPSYAGIGVGAEGFTTFTIATPTGEGTTSARTFGRLRRCVLTNGFSIR	capable of recovering the growth deficiency	–	–
AADHmm: eutE type AADH of Morganella morganii SC01, GenBank EMP53767.1 (protein, AADHmm) MDQKEIENVVKAVLASMSAGTQPAAASAAPQQAAASQNNGFGVFESLDDAVLAAKEAQKSLKTVEMRNLCIGAIRRAATEHARELAVLAVEETGMGRVEDKLAKNLAQANGTPGVECLRPEVLTGDHGLTLIENAAWGVIASVTPSTNPAATAINNAISMIAGGNSVIFAPHPAAKKVSQRTITILNEAIVAAGGPNNLLVTVAKPDIETAQRLFKYPGIGLLVVTGGDAVVESARKHTNKRLIAAGAGNPPVVVDETADIERAAKAIVHGASFDNNIICADEKVLIAVDCIADKLITEMQRNHAVLLTREQSEKLIPVLLKNVDETGHGTVSRDWVGRDAAKIAAAIGMTVPADTRLLIAETDCKHPFAVTELMMPVLPIIRVKDVDQAIDLAVKLEGGCHHTAAMHSNNISNLNRMANAIDTSIFVKNGPCIAGLGLGGEGWTTMTITTPTGEGVTCARTFVRLRRCTMVDSFRIV	capable of recovering the growth deficiency	shown to have AADH activity	–

Reference: patent US10704064B2, “Recombinant yeast producing 3-hydroxypropionic acid and method for producing 3-hydroxypropionic acid using the same” (SK Innovation Co., Ltd., priority 2014, dated 2020)
